Source: publication PMC11480844 (2024)

B1: H2-Kb / B15 (parent complex)
chain 1: QQQVRQSPQSLTVWEGETAILNCSYENSAFDYFPWYQQFPGEGPALLISILSVSDKKEDGRFTIFFNKREKKLSLHIADSQPGDSATYFCAASAASNNRLTLGKGTQVVVLP
chain 2: DSGVVQSPRHIIKEKGGRSVLTCIPISGHSNVVWYQQTLGKELKFLIQHYEKVERDKGFLPSRFSVQQFDDYHSEMNMSALELEDSAMYFCASSRRADAEQFFGPGTRLTVL
chain 3: not shown
chain 4: IQKTPQIQVYSRHPPENGKPNILNCYVTQFHPPHIEIQMLKNGKKIPKVEMSDMSFSKDWSFYILAHTEFTPTETDTYACRVKHDSMAEPKTVYWDRDM
chain 5: SIINFEKL
B2: H2-Kb / Ed46 (parent complex)
chain 1: AQSVTQPDARVTVSEGASLQLRCKYSYFGTPYLFWYVQYPRQGLQLLLKYYPGDPVVQGVNGFEAEFSKSNSSFHLRKASVHWSDWAVYFCAVGRTGGYKVVFGSGTRLLVSP
chain 2: DSGVVQSPRHIIKEKGGRSVLTCIPISGHSNVVWYQQTLGKELKFLIQHYEKVERDKGFLPSRFSVQQFDDYHSEMNMSALELEDSAMYFCASSPRHSDYTFGSGTRLLVI
chain 3: not shown
chain 4: B1 chain 4
chain 5: SIINFEKL

Variants of: B1
Assay: % of reporter cells activated (NFAT-GFP), raw
Also: test concentration or dose not given here.

Row | ratio to parent | Variant
1 | 0.969 | chain 5 F5S
2 | 0.792 | chain 5 F5G
3 | 0.775 | chain 5 F5L
4 | 0.836 | chain 5 F5M
5 | 0.834 | chain 5 F5C
6 | 0.698 | chain 5 F5K
7 | 0.829 | chain 5 F5P
8 | 0.818 | chain 5 F5I
9 | 0.956 | chain 5 E6D
10 | 0.241 | chain 5 E6H
11 | 0.195 | chain 5 E6N
12 | 0.0519 | chain 5 E6L
13 | 0.202 | chain 5 N4F
14 | 0.0132 | chain 5 N4Q
15 | 0.028 | chain 5 N4V
16 | 0.21 | chain 5 N4K
17 | 0.0135 | chain 5 N4S
18 | 0.194 | chain 5 N4I
19 | 0.26 | chain 5 N4E
20 | 0.089 | chain 5 N4H
21 | 0.0553 | chain 5 K7C
22 | 0.27 | chain 5 K7N
23 | 0.377 | chain 5 K7P
24 | 0.359 | chain 5 K7A

Row | ratio to parent | Variant
25 | 0.961 | chain 5 S1Q
26 | 0.601 | chain 5 S1M
27 | 0.517 | chain 5 S1H
28 | 1.03 | chain 5 S1R
29 | 0.416 | chain 5 S1N
30 | 0.144 | chain 5 S1F
31 | 0.487 | chain 5 S1T
32 | 0.898 | chain 5 S1D
33 | 0.727 | chain 5 S1Y
34 | 0.89 | chain 5 I2M
35 | 0.811 | chain 5 I2W
36 | 0.882 | chain 5 I2F
37 | 1.02 | chain 5 I2T
38 | 0.915 | chain 5 I2E
39 | 0.0985 | chain 5 I3N
40 | 0.5 | chain 5 I3A
41 | 0.743 | chain 5 I3Q
42 | 0.601 | chain 5 I3S
43 | 0.982 | chain 5 I3P
44 | 0.503 | chain 5 I3D
45 | 0.904 | chain 5 L8R
46 | 0.75 | chain 5 L8G
47 | 0.784 | chain 5 L8Q

Variants of: B2
Assay: % of reporter cells activated (NFAT-GFP), raw

Row | ratio to parent | Variant
48 | 0.475 | chain 5 E6Q
49 | 1.02 | chain 5 E6D
50 | 0.0112 | chain 5 E6V
51 | 0.0683 | chain 5 E6T
52 | 0.249 | chain 5 E6S
53 | 0.0448 | chain 5 E6C
54 | 0.398 | chain 5 E6M
55 | 0.746 | chain 5 E6K
56 | 0.25 | chain 5 E6H
57 | 0.355 | chain 5 E6G
58 | 0.329 | chain 5 E6P
59 | 0.0998 | chain 5 E6F
60 | 0.0119 | chain 5 E6I
61 | 0.464 | chain 5 E6N
62 | 0.119 | chain 5 E6Y
63 | 0.632 | chain 5 E6R
64 | 1.26 | chain 5 I2C
65 | 0.693 | chain 5 I2W
66 | 0.775 | chain 5 I2Q
67 | 1.23 | chain 5 I2P
68 | 0.785 | chain 5 I2H
69 | 1.11 | chain 5 I2E
70 | 1.12 | chain 5 I2K
71 | 1.4 | chain 5 I2S
72 | 1.2 | chain 5 I2G
73 | 1.4 | chain 5 I2V

Row | ratio to parent | Variant
74 | 1.38 | chain 5 I2L
75 | 1.37 | chain 5 I2D
76 | 1.17 | chain 5 I2M
77 | 0.918 | chain 5 L8W
78 | 0.912 | chain 5 L8H
79 | 0.918 | chain 5 L8R
80 | 0.886 | chain 5 L8V
81 | 1.06 | chain 5 L8F
82 | 0.703 | chain 5 L8G
83 | 0.618 | chain 5 L8D
84 | 0.697 | chain 5 L8N
85 | 0.783 | chain 5 L8S
86 | 1.01 | chain 5 L8T
87 | 0.691 | chain 5 L8E
88 | 0.718 | chain 5 L8P
89 | 1.08 | chain 5 L8M
90 | 0.977 | chain 5 L8Q
91 | 0.955 | chain 5 F5N
92 | 1.02 | chain 5 F5I
93 | 0.757 | chain 5 F5Q
94 | 0.916 | chain 5 F5G
95 | 1.01 | chain 5 F5A
96 | 1.3 | chain 5 F5Y
97 | 1.23 | chain 5 F5H
98 | 1.38 | chain 5 F5T
99 | 0.845 | chain 5 F5K

Row | ratio to parent | Variant
100 | 1.05 | chain 5 F5V
101 | 1.17 | chain 5 F5P
102 | 1.2 | chain 5 F5W
103 | 0.591 | chain 5 F5D
104 | 0.65 | chain 5 F5E
105 | 0.349 | chain 5 K7P
106 | 0.383 | chain 5 K7A
107 | 0.446 | chain 5 K7Y
108 | 0.0863 | chain 5 K7M
109 | 0.74 | chain 5 K7H
110 | 0.353 | chain 5 K7V
111 | 0.0438 | chain 5 K7F
112 | 0.291 | chain 5 K7T
113 | 0.0219 | chain 5 K7D
114 | 0.341 | chain 5 K7G
115 | 0.689 | chain 5 K7S
116 | 0.814 | chain 5 K7R
117 | 0.018 | chain 5 S1F
118 | 0.0213 | chain 5 S1I
119 | 0.0873 | chain 5 S1Q
120 | 0.0092 | chain 5 S1L
121 | 0.223 | chain 5 S1R
122 | 0.235 | chain 5 S1M
123 | 0.39 | chain 5 S1G
124 | 0.328 | chain 5 S1K
125 | 0.151 | chain 5 S1W

Row | ratio to parent | Variant
126 | 0.675 | chain 5 S1D
127 | 0.174 | chain 5 S1E
128 | 0.795 | chain 5 S1Y
129 | 0.036 | chain 5 N4H
130 | 0.00595 | chain 5 N4G
131 | 0.00323 | chain 5 N4V
132 | 0.00601 | chain 5 N4S
133 | 0.00528 | chain 5 N4Q
134 | 0.009 | chain 5 N4D
135 | 0.0038 | chain 5 N4A
136 | 0.0143 | chain 5 N4E
137 | 0.0192 | chain 5 N4F
138 | 0.0356 | chain 5 N4C
139 | 0.0714 | chain 5 N4I
140 | 0.139 | chain 5 I3A
141 | 0.34 | chain 5 I3N
142 | 0.301 | chain 5 I3T
143 | 1.05 | chain 5 I3L
144 | 1.06 | chain 5 I3S
145 | 0.726 | chain 5 I3F
146 | 0.383 | chain 5 I3Q
147 | 0.689 | chain 5 I3C
148 | 0.724 | chain 5 I3V
149 | 0.669 | chain 5 I3P
150 | 0.64 | chain 5 I3W
